Results published in IntAct's records for PubMed 20937695.

B1: "Na(+)/H(+) exchange regulatory cofactor NHE-RF1" (Homo sapiens), O14745 (parent)
chain: MSADAAAGAPLPRLCCLEKGPNGYGFHLHGEKGKLGQYIRLVEPGSPAEKAGLLAGDRLVEVNGENVEKETHQQVVSRIRAALNAVRLLVVDPETDEQLQKLGVQVREELLRAQEAPGQAEPPAAAEVQGAGNENEPREADKSHPEQRELRPRLCTMKKGPSGYGFNLHSDKSKPGQFIRSVDPDSPAEASGLRAQDRIVEVNGVCMEGKQHGDVVSAIRAGGDETKLLVVDRETDEFFKKCRVIPSQEHLNGPLPVPFTNGEIQKENSREALAEAALESPRPALVRSASSDTSEELNSQDSPPKQDSTAPSSTSSSDPILDFNISLAMAKERAHQKRSSKRAPQMDWSKKNELFSNL
B2: "Na(+)/H(+) exchange regulatory cofactor NHE-RF1" (Homo sapiens), O14745 (parent)
chain: B1 chain
partner: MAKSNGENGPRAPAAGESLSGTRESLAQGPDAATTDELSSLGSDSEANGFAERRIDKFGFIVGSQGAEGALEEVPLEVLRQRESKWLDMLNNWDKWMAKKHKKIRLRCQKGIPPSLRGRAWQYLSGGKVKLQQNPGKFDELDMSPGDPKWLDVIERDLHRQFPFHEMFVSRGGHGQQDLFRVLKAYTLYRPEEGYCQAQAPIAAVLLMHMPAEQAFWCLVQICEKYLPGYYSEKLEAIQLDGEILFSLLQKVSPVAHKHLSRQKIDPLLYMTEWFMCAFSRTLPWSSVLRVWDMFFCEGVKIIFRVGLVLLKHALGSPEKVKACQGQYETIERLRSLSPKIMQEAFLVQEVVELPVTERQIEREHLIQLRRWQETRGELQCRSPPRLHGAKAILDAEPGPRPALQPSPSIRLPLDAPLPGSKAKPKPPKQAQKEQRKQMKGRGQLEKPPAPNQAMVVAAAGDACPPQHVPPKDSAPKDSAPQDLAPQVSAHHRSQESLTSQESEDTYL

Variants of: B1
Conditions: with ezri_human EZR

Variant | effect of a mutation on the interaction
M346A;W348A | decreasing interaction strength
F355A | with no effect
F355R | disrupting interaction strength

Variants of: B1
Conditions: with ezri_human EZR
Remark: another data set of the same source

Variant | effect of a mutation on the interaction
S162A;S339A;S340A | decreasing interaction strength
S162D;S339D;S340D | decreasing interaction strength
S280A;S302A | decreasing interaction strength
S280D;S302D | decreasing interaction strength

Variants of: B2
Conditions: with tb10a_human TBC1D10A

Variant | effect of a mutation on the interaction
S280D;S302D | with no effect
S280A;S302A | with no effect
S162A;S339A;S340A | with no effect
S162D;S339D;S340D | with no effect
